Laboratory results from PMC9365671.

T1: full-length human KIF5A-mScarlet-StrepII (human), Q12840
T1 chain: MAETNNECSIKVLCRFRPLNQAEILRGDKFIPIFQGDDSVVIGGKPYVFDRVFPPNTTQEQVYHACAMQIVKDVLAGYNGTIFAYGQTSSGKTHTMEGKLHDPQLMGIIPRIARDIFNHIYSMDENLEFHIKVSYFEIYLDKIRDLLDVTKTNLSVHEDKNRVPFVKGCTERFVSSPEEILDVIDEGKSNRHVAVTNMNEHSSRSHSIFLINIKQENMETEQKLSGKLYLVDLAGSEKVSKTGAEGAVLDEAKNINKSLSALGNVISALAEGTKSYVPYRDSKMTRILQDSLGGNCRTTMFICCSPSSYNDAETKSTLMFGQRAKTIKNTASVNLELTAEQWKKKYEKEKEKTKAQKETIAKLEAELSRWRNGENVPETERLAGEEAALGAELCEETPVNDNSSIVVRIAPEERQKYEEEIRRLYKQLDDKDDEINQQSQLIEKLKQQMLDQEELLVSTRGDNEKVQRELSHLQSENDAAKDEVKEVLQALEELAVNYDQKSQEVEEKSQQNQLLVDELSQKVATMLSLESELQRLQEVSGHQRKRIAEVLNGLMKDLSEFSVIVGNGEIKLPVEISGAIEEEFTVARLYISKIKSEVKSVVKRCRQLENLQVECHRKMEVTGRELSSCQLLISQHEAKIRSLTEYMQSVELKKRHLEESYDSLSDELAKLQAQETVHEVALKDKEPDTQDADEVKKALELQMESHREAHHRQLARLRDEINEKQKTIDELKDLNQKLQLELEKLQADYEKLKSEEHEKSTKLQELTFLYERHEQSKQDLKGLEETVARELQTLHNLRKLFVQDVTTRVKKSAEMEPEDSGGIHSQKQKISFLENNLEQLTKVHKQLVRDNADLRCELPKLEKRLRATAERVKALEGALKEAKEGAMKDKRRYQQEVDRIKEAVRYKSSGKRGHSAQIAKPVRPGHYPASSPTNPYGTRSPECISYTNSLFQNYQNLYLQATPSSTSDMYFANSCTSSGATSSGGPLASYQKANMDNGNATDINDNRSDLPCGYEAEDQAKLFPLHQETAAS

T2: full-length human KIF5B-mScarlet-StrepII (human), P33176
T2 chain: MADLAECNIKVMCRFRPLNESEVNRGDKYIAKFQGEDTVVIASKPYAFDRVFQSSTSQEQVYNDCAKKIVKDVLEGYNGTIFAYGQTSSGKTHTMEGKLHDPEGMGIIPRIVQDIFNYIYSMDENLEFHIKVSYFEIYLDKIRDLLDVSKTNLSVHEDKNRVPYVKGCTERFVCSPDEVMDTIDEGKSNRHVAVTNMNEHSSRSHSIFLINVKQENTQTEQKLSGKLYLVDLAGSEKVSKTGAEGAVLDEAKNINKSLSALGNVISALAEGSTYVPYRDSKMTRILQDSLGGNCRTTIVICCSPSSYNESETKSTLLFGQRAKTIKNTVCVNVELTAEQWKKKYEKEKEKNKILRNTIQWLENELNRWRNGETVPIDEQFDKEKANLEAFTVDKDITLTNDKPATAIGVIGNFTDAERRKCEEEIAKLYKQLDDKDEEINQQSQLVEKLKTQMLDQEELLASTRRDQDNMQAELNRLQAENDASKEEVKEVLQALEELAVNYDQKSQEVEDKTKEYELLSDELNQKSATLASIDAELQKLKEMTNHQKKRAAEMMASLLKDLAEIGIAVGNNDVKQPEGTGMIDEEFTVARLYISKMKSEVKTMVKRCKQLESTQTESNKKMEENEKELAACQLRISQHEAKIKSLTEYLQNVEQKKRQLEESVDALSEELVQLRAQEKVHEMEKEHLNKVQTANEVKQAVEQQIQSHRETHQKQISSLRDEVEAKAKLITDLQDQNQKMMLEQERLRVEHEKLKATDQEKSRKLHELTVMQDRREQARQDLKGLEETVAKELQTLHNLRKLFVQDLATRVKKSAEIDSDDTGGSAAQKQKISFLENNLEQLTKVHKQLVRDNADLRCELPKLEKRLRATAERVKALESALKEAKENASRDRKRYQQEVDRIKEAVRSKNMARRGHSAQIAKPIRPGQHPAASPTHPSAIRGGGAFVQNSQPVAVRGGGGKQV


Legend:
Settings in all cases: remark: other sources report otherwise
[1] = molecular target: T1, full-length human …; assay: SEC-MALS; purified full-length KIF5 alone; BioSep SEC-s4000 column, GF150 buffer (25 mM HEPES-KOH, 150 mM KCl, 2 mM MgCl2)
[2] = molecular target: T1, full-length human …; assay: single-molecule fluorescence brightness (TIRF microscopy); brightness of motile KIF5A-mScarlet molecules on microtubules, ATP
[3] = molecular target: T2, full-length human …; assay: SEC-MALS; purified full-length KIF5 alone; BioSep SEC-s4000 column, GF150 buffer (25 mM HEPES-KOH, 150 mM KCl, 2 mM MgCl2)

| stoichiometry N [1] | stoichiometry N [2] | stoichiometry N [3] | Binder |
| --- | --- | --- | --- |
| 4 | 4 | – | full-length human KIF5A-mScarlet-StrepII, Q12840 1-1032 (natural protein) MAETNNECSIKVLCRFRPLNQAEILRGDKFIPIFQGDDSVVIGGKPYVFDRVFPPNTTQEQVYHACAMQIVKDVLAGYNGTIFAYGQTSSGKTHTMEGKLHDPQLMGIIPRIARDIFNHIYSMDENLEFHIKVSYFEIYLDKIRDLLDVTKTNLSVHEDKNRVPFVKGCTERFVSSPEEILDVIDEGKSNRHVAVTNMNEHSSRSHSIFLINIKQENMETEQKLSGKLYLVDLAGSEKVSKTGAEGAVLDEAKNINKSLSALGNVISALAEGTKSYVPYRDSKMTRILQDSLGGNCRTTMFICCSPSSYNDAETKSTLMFGQRAKTIKNTASVNLELTAEQWKKKYEKEKEKTKAQKETIAKLEAELSRWRNGENVPETERLAGEEAALGAELCEETPVNDNSSIVVRIAPEERQKYEEEIRRLYKQLDDKDDEINQQSQLIEKLKQQMLDQEELLVSTRGDNEKVQRELSHLQSENDAAKDEVKEVLQALEELAVNYDQKSQEVEEKSQQNQLLVDELSQKVATMLSLESELQRLQEVSGHQRKRIAEVLNGLMKDLSEFSVIVGNGEIKLPVEISGAIEEEFTVARLYISKIKSEVKSVVKRCRQLENLQVECHRKMEVTGRELSSCQLLISQHEAKIRSLTEYMQSVELKKRHLEESYDSLSDELAKLQAQETVHEVALKDKEPDTQDADEVKKALELQMESHREAHHRQLARLRDEINEKQKTIDELKDLNQKLQLELEKLQADYEKLKSEEHEKSTKLQELTFLYERHEQSKQDLKGLEETVARELQTLHNLRKLFVQDVTTRVKKSAEMEPEDSGGIHSQKQKISFLENNLEQLTKVHKQLVRDNADLRCELPKLEKRLRATAERVKALEGALKEAKEGAMKDKRRYQQEVDRIKEAVRYKSSGKRGHSAQIAKPVRPGHYPASSPTNPYGTRSPECISYTNSLFQNYQNLYLQATPSSTSDMYFANSCTSSGATSSGGPLASYQKANMDNGNATDINDNRSDLPCGYEAEDQAKLFPLHQETAAS |
| – | – | 2 | full-length human KIF5B-mScarlet-StrepII, P33176 1-963 (natural protein) MADLAECNIKVMCRFRPLNESEVNRGDKYIAKFQGEDTVVIASKPYAFDRVFQSSTSQEQVYNDCAKKIVKDVLEGYNGTIFAYGQTSSGKTHTMEGKLHDPEGMGIIPRIVQDIFNYIYSMDENLEFHIKVSYFEIYLDKIRDLLDVSKTNLSVHEDKNRVPYVKGCTERFVCSPDEVMDTIDEGKSNRHVAVTNMNEHSSRSHSIFLINVKQENTQTEQKLSGKLYLVDLAGSEKVSKTGAEGAVLDEAKNINKSLSALGNVISALAEGSTYVPYRDSKMTRILQDSLGGNCRTTIVICCSPSSYNESETKSTLLFGQRAKTIKNTVCVNVELTAEQWKKKYEKEKEKNKILRNTIQWLENELNRWRNGETVPIDEQFDKEKANLEAFTVDKDITLTNDKPATAIGVIGNFTDAERRKCEEEIAKLYKQLDDKDEEINQQSQLVEKLKTQMLDQEELLASTRRDQDNMQAELNRLQAENDASKEEVKEVLQALEELAVNYDQKSQEVEDKTKEYELLSDELNQKSATLASIDAELQKLKEMTNHQKKRAAEMMASLLKDLAEIGIAVGNNDVKQPEGTGMIDEEFTVARLYISKMKSEVKTMVKRCKQLESTQTESNKKMEENEKELAACQLRISQHEAKIKSLTEYLQNVEQKKRQLEESVDALSEELVQLRAQEKVHEMEKEHLNKVQTANEVKQAVEQQIQSHRETHQKQISSLRDEVEAKAKLITDLQDQNQKMMLEQERLRVEHEKLKATDQEKSRKLHELTVMQDRREQARQDLKGLEETVAKELQTLHNLRKLFVQDLATRVKKSAEIDSDDTGGSAAQKQKISFLENNLEQLTKVHKQLVRDNADLRCELPKLEKRLRATAERVKALESALKEAKENASRDRKRYQQEVDRIKEAVRSKNMARRGHSAQIAKPIRPGQHPAASPTHPSAIRGGGAFVQNSQPVAVRGGGGKQV |
